B1: TCN-541 (5062_M11) (antibody, V domains shown)
VH: QVQLQESGPGLVKPSETLSLTCTVSGGSINSYYWNWIRQPPGKGLEWIGYIYHSGSTNYNPSLKSRVTISVDTSKNQFSLQLSSVTAADTAVYYCARLRTDYGDPDSVYYYGMDVWGQGTTVTVSS
VL: SYELTQPPSVSVSPGQTARITCSGDALPKQNAYWYQQKPGQAPVLLIYKDSERPSGIPERFSGSSSGTTVTLTISGVQAEDEADYYCQSADSSGTSWVFGGGTKLTVL
B2: TCN-547 (5092_F11) (antibody, V domains shown)
VH: QVQLQESGPGLVKPSQTLSLTCTVSGDSISSVDHYWSWIRQHPVKGLEWIGFMYYSASTYYNPSLKSRVTISTDTSKNQFSLRLSSVTAADTAVYYCARGTCAGDCSLHYYYYGLDVWGQGRTVTVSS
VL: DIQMTQSPSSLSASVGDRVTITCRASQSISSYLNWYQHKPGKAPKVLMYAVSILQSGVPSRFSGSGSGADFTLTISSLQPEDFATYYCQQSYSSPLTFGGGTKVEIK
B3: TCN-558 (5248_H10b) (antibody, V domains shown)
VH: QVQLVQSGSEVKKPGTSVKVSCTASGSVFTNYGISWVRQAPGQGLEWMGGIIPLFGAAKYAQKFQGRVTITADESTKTVYMELSRLTSKDTAIYFCAKAPRVYEYYFDQWGQGTPVTVSS
VL: EIVMTQFPATLSVSPGERVTLSCRASQSVSNNLAWYQQKPGQPPRLLIYDASTRATGVPAKFSGTGSGTEFTLSISSLQSEDFAVYYCQQYHNWPPSYSFGLGTKLEIK
B4: TCN-548 (5092_P01) (antibody, V domains shown)
VH: QVQLQESGPGLVKPSETLSLTCTVSSGPMSDYYWSWIRQPPGKGLEWIGHVSVSHGGRTKSNPSVMSRVTISVETSKNQFSLKLTSVTAADTAVYYCARLNYYDRSGYHSPDGPSNNWFDPWGQGTLVTVSS
VL: not shown

Experiments:
Conditions in all cases: remark: other sources report otherwise
[1] = target: recombinant soluble homotrimeric HA of A/Indonesia/5/05 (H5N1) (Influenza A virus A/Indonesia/5/2005(H5N1)); experiment: HA microarray, BCC supernatant
[2] = target: T1, recombinant soluble homotrimeric HA of A/Vietnam/1203/04 (H5N1) (Influenza A virus A/VietNam/1203/2004(H5N1)); experiment: HA microarray, BCC supernatant
[3] = target: recombinant soluble homotrimeric HA of A/Wisconsin/67/05 (H3N2) (Influenza A virus A/Wisconsin/67/2005(H3N2)); experiment: HA microarray, BCC supernatant
[4] = target: recombinant homotrimeric HA A/Anhui/1/05 H5N1 (Influenza A virus A/Anhui/1/2005(H5N1)); experiment: protein microarray, purified IgG, trimeric HA
[5] = target: recombinant homotrimeric HA A/California/4/09 H1N1 (Influenza A virus A/California/04/2009(H1N1)); experiment: protein microarray, purified IgG, trimeric HA
[6] = target: recombinant homotrimeric HA A/Egypt/3300-NAMRU3/08 H5N1 (Influenza A virus A/Egypt/3300-NAMRU3/2008(H5N1)); experiment: protein microarray, purified IgG, trimeric HA
[7] = target: recombinant homotrimeric HA A/Hong Kong/2108/03 H9N2 (Influenza A virus A/HK/2108/2003(H9N2)); experiment: protein microarray, purified IgG, trimeric HA
[8] = target: recombinant homotrimeric HA A/Indonesia/5/05 H5N1 (Influenza A virus A/Indonesia/5/2005(H5N1)); experiment: protein microarray, purified IgG, trimeric HA
[9] = target: recombinant homotrimeric HA A/Japan/305/57 H2N2 (Influenza A virus A/Japan/305/1957(H2N2)); experiment: protein microarray, purified IgG, trimeric HA
[10] = target: recombinant homotrimeric HA A/South Carolina/1/18 H1N1 (Influenza A virus A/South Carolina/1/18 (H1N1)); experiment: protein microarray, purified IgG, trimeric HA
[11] = target: recombinant homotrimeric HA A/Vietnam/1203/04 H5N1 (Influenza A virus A/VietNam/1203/2004(H5N1)); experiment: protein microarray, purified IgG, trimeric HA
[12] = target: recombinant homotrimeric HA A/duck/Yangzhou/02/05 H8N4 (Influenza A virus A/duck/Yangzhou/02/2005(H8N4)); experiment: protein microarray, purified IgG, trimeric HA
[13] = target: recombinant soluble homotrimeric HA of A/South Carolina/1/18 (H1N1) (Influenza A virus A/South Carolina/1/18 (H1N1)); experiment: trimeric HA microarray, transfection supernatant set 5
[14] = target: T1, recombinant soluble homotrimeric HA of …; experiment: as above
[15] = target: recombinant soluble homotrimeric HA of A/chicken/Vietnam/NCVD-016/08 (H5N1) (Influenza A virus A/chicken/Vietnam/NCVD-016/2008(H5N1)); experiment: as above
[16] = target: recombinant soluble homotrimeric HA of A/Japan/305/57 (H2N2) (Influenza A virus A/Japan/305/1957(H2N2)); experiment: HA microarray, BCC supernatant
[17] = target: recombinant soluble homotrimeric HA of A/Netherlands/219/03 (H7N7) (Influenza A virus A/Netherlands/219/03(H7N7)); experiment: HA microarray, BCC supernatant
[18] = target: recombinant soluble homotrimeric HA of A/Solomon Islands/3/06 (H1N1) (Influenza A virus A/Solomon Islands/3/2006(H1N1)); experiment: HA microarray, BCC supernatant
[19] = target: recombinant soluble homotrimeric HA of A/duck/Yangzhou/02/05 (H8N4) (Influenza A virus A/duck/Yangzhou/02/2005(H8N4)); experiment: HA microarray, BCC supernatant
[20] = target: recombinant soluble homotrimeric HA of A/swine/Ontario/01911-2/99 (H4N6) (Influenza A virus A/Swine/Ontario/01911-2/99 (H4N6)); experiment: HA microarray, BCC supernatant
[21] = target: recombinant soluble homotrimeric HA, A/Egypt/3300-NAMRU3/08 H5N1 (Influenza A virus A/Egypt/3300-NAMRU3/2008(H5N1)); experiment: microarray, transfection SN IgG, trimeric HA
[22] = target: recombinant soluble homotrimeric HA, A/Japan/305/57 H2N2 (Influenza A virus A/Japan/305/1957(H2N2)); experiment: microarray, transfection SN IgG, trimeric HA
[23] = target: recombinant soluble homotrimeric HA, A/Netherlands/219/03 H7N7 (Influenza A virus A/Netherlands/219/03(H7N7)); experiment: microarray, transfection SN IgG, trimeric HA
[24] = target: recombinant soluble homotrimeric HA, A/Solomon Islands/3/06 H1N1 (Influenza A virus A/Solomon Islands/3/2006(H1N1)); experiment: microarray, transfection SN IgG, trimeric HA
[25] = target: recombinant soluble homotrimeric HA, A/South Carolina/1/18 H1N1 (Influenza A virus A/South Carolina/1/18 (H1N1)); experiment: microarray, transfection SN IgG, trimeric HA
[26] = target: recombinant soluble homotrimeric HA, A/Wisconsin/67/05 H3N2 (Influenza A virus A/Wisconsin/67/2005(H3N2)); experiment: microarray, transfection SN IgG, trimeric HA
[27] = target: recombinant soluble homotrimeric HA, A/chicken/Vietnam/NCVD-016/08 H5N1 (Influenza A virus A/chicken/Vietnam/NCVD-016/2008(H5N1)); experiment: microarray, transfection SN IgG, trimeric HA
[28] = target: recombinant soluble homotrimeric HA, A/duck/Yangzhou/02/05 H8N4 (Influenza A virus A/duck/Yangzhou/02/2005(H8N4)); experiment: microarray, transfection SN IgG, trimeric HA
[29] = target: recombinant soluble homotrimeric HA, A/northern shoveler/California/HKWF115/07 H6N4 (Influenza A virus A/northern shoveler/California/HKWF115/2007(H6N1)); experiment: microarray, transfection SN IgG, trimeric HA
[30] = target: recombinant soluble homotrimeric HA, A/swine/Ontario/01911-2/99 H4N6 (Influenza A virus A/Swine/Ontario/01911-2/99 (H4N6)); experiment: microarray, transfection SN IgG, trimeric HA
[31] = target: recombinant soluble homotrimeric HA, A/California/4/09 H1N1 (Influenza A virus A/California/04/2009(H1N1)); experiment: microarray, transfection SN IgG, trimeric HA
[32] = target: recombinant homotrimeric HA A/Hong Kong/1073/99 H9N2 (Influenza A virus A/Hong Kong/1073/99 (H9N2)); experiment: protein microarray, purified IgG, trimeric HA
[33] = target: recombinant homotrimeric HA A/Netherlands/219/03 H7N7 (Influenza A virus A/Netherlands/219/03(H7N7)); experiment: protein microarray, purified IgG, trimeric HA
[34] = target: recombinant homotrimeric HA A/Solomon Islands/3/06 H1N1 (Influenza A virus A/Solomon Islands/3/2006(H1N1)); experiment: protein microarray, purified IgG, trimeric HA
[35] = target: recombinant homotrimeric HA A/Wisconsin/67/05 H3N2 (Influenza A virus A/Wisconsin/67/2005(H3N2)); experiment: protein microarray, purified IgG, trimeric HA
[36] = target: recombinant homotrimeric HA A/chicken/Vietnam/NCVD-016/08 H5N1 (Influenza A virus A/chicken/Vietnam/NCVD-016/2008(H5N1)); experiment: protein microarray, purified IgG, trimeric HA
[37] = target: recombinant homotrimeric HA A/northern shoveler/California/HKWF115/07 H6N4 (Influenza A virus A/northern shoveler/California/HKWF115/2007(H6N1)); experiment: protein microarray, purified IgG, trimeric HA
[38] = target: recombinant soluble homotrimeric HA of A/California/4/09 (H1N1) (Influenza A virus A/California/04/2009(H1N1)); experiment: HA microarray, BCC supernatant

| Binder | Trimeric HA Binding: RLU [3] | Trimeric HA Binding: RLU [5] | Trimeric HA Binding: RLU [6] | Trimeric HA Binding: RLU [7] | Trimeric HA Binding: RLU [9] | Trimeric HA Binding: RLU [10] | Trimeric HA Binding: RLU [16] | Trimeric HA Binding: RLU [17] | Trimeric HA Binding: RLU [18] | Trimeric HA Binding: RLU [19] | Trimeric HA Binding: RLU [20] | Trimeric HA Binding: RLU [21] | Trimeric HA Binding: RLU [22] | Trimeric HA Binding: RLU [23] | Trimeric HA Binding: RLU [24] | Trimeric HA Binding: RLU [25] | Trimeric HA Binding: RLU [26] | Trimeric HA Binding: RLU [27] | Trimeric HA Binding: RLU [29] | Trimeric HA Binding: RLU [30] | other results |
| --- | --- | --- | --- | --- | --- | --- | --- | --- | --- | --- | --- | --- | --- | --- | --- | --- | --- | --- | --- | --- | --- |
| B1 | 2920 RLU | 348 RLU | 791 RLU | 175 RLU | 934 RLU | 192 RLU |  |  |  |  |  |  |  |  |  |  |  |  |  |  | Trimeric HA Binding: RLU [1]: 30 RLU; Trimeric HA Binding: RLU [2]: 43 RLU; Trimeric HA Binding: RLU [4]: 970 RLU; Trimeric HA Binding: RLU [8]: 160 RLU; Trimeric HA Binding: RLU [11]: 1150 RLU; Trimeric HA Binding: RLU [12]: 352 RLU; Trimeric HA Binding: RLU [13]: 2580 RLU; Trimeric HA Binding: RLU [14]: 45500 RLU; Trimeric HA Binding: RLU [15]: 11000 RLU |
| B2 | 16900 RLU |  |  |  |  |  | 40 RLU | 401 RLU | 155 RLU | 278 RLU | 252 RLU | 16800 RLU | 1350 RLU | 2090 RLU | 1080 RLU | 2020 RLU | 6970 RLU | 1320 RLU | 2620 RLU | 1600 RLU | Trimeric HA Binding: RLU [28]: 3340 RLU |
| B3 |  | 24700 RLU | 25500 RLU | 257 RLU | 27200 RLU | 13600 RLU |  |  |  |  |  | 21900 RLU | 34400 RLU | 5840 RLU | 36100 RLU | 40700 RLU | 26600 RLU | 33400 RLU | 29400 RLU | 10000 RLU | Trimeric HA Binding: RLU [31]: 20200 RLU; Trimeric HA Binding: RLU [32]: 4380 RLU; Trimeric HA Binding: RLU [33]: 623 RLU; Trimeric HA Binding: RLU [34]: 22000 RLU; Trimeric HA Binding: RLU [35]: 320 RLU; Trimeric HA Binding: RLU [36]: 9730 RLU; Trimeric HA Binding: RLU [37]: 12300 RLU |
| B4 |  |  |  |  |  |  | 416 RLU | 758 RLU | 283 RLU | 184 RLU | 240 RLU |  | 1020 RLU | 2130 RLU | 750 RLU | 1150 RLU |  | 1060 RLU | 2100 RLU | 1620 RLU | Trimeric HA Binding: RLU [38]: 234 RLU; Trimeric HA Binding: RLU [31]: 818 RLU; Trimeric HA Binding: RLU [28]: 5740 RLU |

Source: patent US20150086555A1
